Data: the supplement of paper PMC10567573
± gives the standard deviation.

Assay: protein stability index of a GFP-peptide fusion (GPS, HEK-293T) (PSI 1-6); higher = more stable
Conditions: c terminus: a fixed tail appended
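Further: 24-mer peptide tiles fused after GFP, lentivirally expressed, FACS-sorted into six equal bins by GFP/DsRed ratio, decoded by Illumina sequencing, PSI is the read-weighted mean bin number.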

| Sequence | protein stability index (treatment: DMSO) | protein stability index (treatment: MLN4924 1 uM, 8 h) |
| --- | --- | --- |
| VLKTRFSYAFPKEFPYRMNHILEC [CCNC] | 2.59 ± 0.58 | 2.2 ± 0.24 |
| VLLPETQKRQQLSEDTLTIHGLPT [C22orf31] | 3.73 ± 0.092 | 3.88 ± 0.3 |
| VLNPHPSLGYKEIRKGESRSEALA [CHGA] | 4.14 ± 0.19 | 4.5 ± 0.3 |
| VNDLRGSDSIAYDKGEKLLRCKLA [ADD1] | 3.34 ± 0.21 | 3.48 ± 0.48 |
| VNSDYETYMSADDLRINLWNFEIT [PPP2R2B] | 2.19 ± 0.23 | 2.4 ± 0.23 |
| VNVSDRGGRTALHHAALNGHVEMV [ANKRD44] | 3.39 ± 0.43 | 3.24 ± 0.093 |
| VPDSDIKALTTLCDLADRELVVII [ESRRG] | 2.53 ± 0.38 | 2.6 ± 0.45 |
| VPKVGQRFNRIGLPPKVGSFQLFV [PI4K2A] | 2.31 ± 0.78 | 2.34 ± 0.44 |
| VPPGDYLFQVVINPNFEVAESDYS [LOXL2] | 2.31 ± 0.37 | 2.12 ± 0.43 |
| VPRTLSPHQYHSVHGVGMVPEWSD [TBX5] | 3.62 ± 0.25 | 3.77 ± 0.16 |
| VQIRRLEAAGESLEEEIRRKQILL [ZC2HC1C] | 3.31 ± 0.37 | 3.45 ± 0.37 |
| VRCEALTGELETLKERCAQDACQA [CCDC89] | 4.43 ± 0.39 | 4.25 ± 0.18 |
| VRDMMANFHLNDLEAPHEDDAEGE [TCF25] | 5.48 ± 0.13 | 5.3 ± 0.31 |
| VRRLQALRLEREEYVLLKALALAN [ESRRA] | 2.18 ± 0.54 | 2.12 ± 0.31 |
| VRVLDMVAKLESECLKRQGQREPG [FBXO34] | 4.06 ± 0.29 | 4.17 ± 0.31 |
| VRYNAEKKKVGNYYTTPIYRFRMK [YJU2B] | 2.57 ± 0.17 | 2.86 ± 0.35 |
| VSAGGHTLSRPPPAQVPREVLKVQ [TFE3] | 3.95 ± 0.33 | 4.21 ± 0.11 |
| VSCPEGRADCASESACSSDSLDEA [PWWP2B] | 5.4 ± 0.38 | 5.41 ± 0.42 |
| VSDDLSSEEDGEARTQMILLRRSV [PHTF1] | 4.8 ± 0.17 | 5.08 ± 0.15 |
| VSFVIHNLPIIAKMAAVSKASGRF [SEPHS2] | 3.08 ± 0.29 | 2.75 ± 0.61 |
| VSGSWERDQQVEAAQRALVEVLGP [RETREG3] | 3.9 ± 0.33 | 4.08 ± 0.094 |

| Sequence | protein stability index (treatment: DMSO) | protein stability index (treatment: MLN4924 1 uM, 8 h) |
| --- | --- | --- |
| VSLHQASLGGCSQDFLLFSPEVES [NFE2L1] | 2.06 ± 0.12 | 2.971 ± 0.02 |
| VSMETYHVTLTLPPTQLEVNLEEI [C2CD2L] | 2.34 ± 0.35 | 2.27 ± 0.31 |
| VTEFILLGLTQNPEGQKVLFVTFL [OR4A15] | 2.96 ± 0.44 | 3.27 ± 0.29 |
| VTIPAGATHILVRQQGNPGHRSIY [ADAMTS4] | 2.51 ± 0.12 | 2.32 ± 0.52 |
| VTQEPRAKKGRRNQSVEPKKEEPE [ZMYND11] | 5.45 ± 0.24 | 5.6 ± 0.21 |
| VTVLEDLEKGLEPEPQVPGPAHGP [ZNF232] | 4.99 ± 0.27 | 4.874 ± 0.039 |
| VVGNWQYFFPVIFSKASDSLQLVF [MAGEA6] | 3.21 ± 0.34 | 3.32 ± 0.63 |
| VVQDSVNISGHTNTNTLKVPECRL [SPOPL] | 3.34 ± 0.25 | 3.56 ± 0.43 |
| VYTRHGVPISVTGIAQVKIQGQNK [FLOT1] | 2.72 ± 0.12 | 2.63 ± 0.39 |
| WEEAQSPANCPACREPSPKMDFKT [TRIM43] | 4.56 ± 0.076 | 4.83 ± 0.25 |
| WGGQEDREPAGRWKEGRPRVEESG [PBXIP1] | 4.79 ± 0.21 | 5.05 ± 0.099 |
| WGKGARGRLGRRDEDAGLPRPVQL [NEK8] | 3.37 ± 0.23 | 3.48 ± 0.32 |
| WGLEEEDFQPREEAMLYHNQTAEL [P3H4] | 4.61 ± 0.084 | 4.5 ± 0.48 |
| WGVFYYFVSALGITAGAHRLWSHR [SCD] | 3.38 ± 0.79 | 2.63 ± 0.62 |
| WILLAESNSADDETDDPRRYQKYG [OAS1] | 3.19 ± 0.17 | 3.32 ± 0.21 |
| WIQVTSLRIFVWLLLLYFMQVIAI [PHTF1] | 3.08 ± 0.43 | 2.93 ± 0.42 |
| WLHALHLRQKGNRNTHKDLLRFAQ [FEM1B] | 2.44 ± 0.52 | 2.35 ± 0.15 |
| WVFGTSFLPFLLCAVLLSAVQAQA [FADS1] | 3.09 ± 0.6 | 2.51 ± 0.12 |
| WVRSVSFSHDGLHVASLADDKMVR [WSB1] | 2.66 ± 0.4 | 3.54 ± 0.45 |
| WVYKNKLIFFGGYGYLPEDKVLGT [KLHDC2] | 2.55 ± 1.1 | 2.88 ± 1.4 |
| YARYHQAFADRDQSERQRHESQQL [TEKT4] | 2.83 ± 0.71 | 3.66 ± 0.64 |

| Sequence | protein stability index (treatment: DMSO) | protein stability index (treatment: MLN4924 1 uM, 8 h) |
| --- | --- | --- |
| YCNFNKYIPRRLEEAAMQKCLVTE [RSAD1] | 2.32 ± 0.41 | 2.51 ± 0.38 |
| YCYRCGNQAAIMELDDTLKYSFLQ [PPP2CA] | 2.74 ± 0.58 | 2.58 ± 0.5 |
| YDLWASDNPLDRPLVGQDEFFLEQ [NOP53] | 4.31 ± 0.13 | 3.69 ± 0.43 |
| YDSFDSEDYPAALPNHKPKGTFKD [ETS1] | 5.05 ± 0.17 | 4.83 ± 0.22 |
| YEFNPDFLEEAHEWNQKRARKAMR [N4BP2L1] | 3.88 ± 0.2 | 4.19 ± 0.29 |
| YESEILPSTPNPQPPSCQGEAAGS [DUSP5] | 5.24 ± 0.13 | 5.296 ± 0.002 |
| YGFSLKTVQGKKGVYMTDITPQGV [PDZK1] | – | 2.5 ± 0.68 |
| YGLKPLTPNSKYVKLNVGGSLHYT [KCTD13] | 2.33 ± 0.23 | 2.49 ± 0.19 |
| YIPRDVDETGITVASLERFSTYTS [ZC3H15] | 2.65 ± 0.16 | 2.96 ± 0.16 |
| YLASLCMCFGPKKVKPAEAETAGA [SLC29A1] | 2.6 ± 0.28 | 2.83 ± 0.23 |
| YLRPQSNYSSSQDALISVSYTIIT [OR10K2] | 2.73 ± 0.7 | 2.68 ± 0.99 |
| YMTKPSKSLLPHLKTGNSSPGIGA [RTP4] | 3.13 ± 0.13 | 3.22 ± 0.27 |
| YPEEADGTLDCISMALTCTFNRWG [RBBP5] | 2.19 ± 0.23 | 2.11 ± 0.28 |
| YPSLQAMGWFNNEVGSMKIQSGAW [CRYBA1] | 1.99 ± 0.41 | 2.45 ± 0.17 |
| YQHLEEDMKSLKQVLEMKNQQIHE [MTUS2] | 4.07 ± 0.11 | 4.27 ± 0.36 |
| YQPEPFACGIEHCSVHYVSDSGDG [FBXO34] | 2.93 ± 0.27 | 3.04 ± 0.26 |
| YQRPQDSEDMWGDEDFTFGAYQPT [FBF1] | 3.2 ± 0.55 | 3.76 ± 0.48 |
| YSLTTSSTHKRSSLRKVKLVRPPQ [RAB40B] | 3.42 ± 0.24 | 3.63 ± 0.32 |
| YSLVLELSDSGAFRRSLHDPDGLV [APMAP] | 2.28 ± 0.48 | 2.14 ± 0.38 |
| YVKYQVAIHQDPPDECGKTEFTRF [ATE1] | 2.4 ± 0.2 | 2.56 ± 0.5 |
| YYHRGHVDPANDTFDIDPMVVTDC [MCOLN1] | 3.63 ± 0.21 | 3.78 ± 0.14 |
